# Measured values reported in the RNAGym collection of RNA variant scans (doi:10.7554/elife.80360).
# B1: Hairpin Ribozyme (parent)
# chain: GUCCUCUUUCACGUGCGCGUGAAAGAGAGAAGUGAACCAGAGAAACACACGUUGUGGUAUAUUACCUGGUA
# Variants of: B1
# Assay: self-cleavage, relative activity (ratio to wild type); higher = more cleavage; co-transcriptional
row,Variant,self-cleavage
1,U20A G54C,0.362
2,G19C U52G,0.898
3,C18U U62G,0.0807
4,C18U A39U,0.429
5,C18U A39C,0.66
6,G19A U63G,0.2
7,G19C A24C,0.639
8,G19C A24U,0.533
9,G19C A24G,0.889
10,G19C C48A,0.122
11,G19C C48U,0.132
12,G19A U20C,1.12
13,G19A U20A,0.762
14,G19A A22C,0.677
15,U20A G29U,0.165
16,U20A G29C,0.203
17,C18U U70A,0.899
18,C18G G69C,0.205
19,G19C A44U,0.0473
20,C18U C48U,0.0571
21,C18U C48A,0.134
22,C18G G54U,0.449
23,C18G G54A,0.51
24,G19U A26G,0.849

row,Variant,self-cleavage
1,G19U A26C,0.238
2,U20A A71G,0.89
3,G19U A35C,0.809
4,G19U C38G,0.225
5,U20A A36G,0.858
6,C18U A43U,0.102
7,G19C U58A,0.569
8,C18U C37U,0.713
9,C18U U60A,0.883
10,C18G G34U,1.32
11,C18G G34C,1.17
12,G19U U70A,0.773
13,G19U U70C,0.722
14,C18U G42U,0.407
15,G19U U55A,0.287
16,G19U U55G,0.313
17,C18U U55G,0.382
18,C18A G54C,0.395
19,U20A C37A,0.218
20,G19C A26U,0.719
21,G19A G40A,0.226
22,G19A G40U,0.179
23,G19C A31C,0.143
24,U20A G42C,0.306

row,Variant,self-cleavage
1,C18U C38G,0.158
2,C18G G57A,0.118
3,C18G G57U,0.243
4,G19U G54C,0.437
5,G19U A44C,0.275
6,U20A C48G,0.219
7,U20A C48A,0.23
8,G19C G56U,0.0712
9,C18A G69A,0.455
10,C18U G27C,0.228
11,C18A U52A,1.07
12,C18A U52G,0.86
13,G19C U62C,0.283
14,G19C U62A,0.228
15,G19U C66U,0.334
16,G19U C50G,0.199
17,G19C C50A,0.264
18,G19C G69U,0.212
19,C18U A59U,0.176
20,C18U A59C,0.237
21,C18U C46U,0.195
22,C18G C66G,0.19
23,C18G C66U,0.479
24,G19U G57U,0.207

row,Variant,self-cleavage
1,C18G U70C,0.881
2,C18G A36U,0.728
3,C18U A49C,0.193
4,C18U A49G,0.567
5,U20A A61U,0.238
6,U20A A61G,0.11
7,G19C A47G,0.277
8,U20A A44U,0.177
9,U20A A44G,0.112
10,G19A A41C,1.13
11,C18A U53G,0.891
12,C18A U53A,1.02
13,C18G A71U,0.698
14,C18G A44C,0.164
15,C18G A44U,0.135
16,G19U G68A,0.286
17,G19A A71G,0.857
18,G19A A71U,0.648
19,C18U G54U,0.702
20,C18U G54A,0.695
21,G19A A59U,0.0875
22,C18A G56U,0.196
23,C18A G56A,0.158
24,G19A G51C,0.702

row,Variant,self-cleavage
1,G19A G51U,0.881
2,G19U U20G,0.707
3,G19C G42U,0.24
4,C18U A44C,0.146
5,G19A A45U,0.1
6,G19A G56U,0.123
7,G19A A43C,0.15
8,G19A A49G,0.595
9,C18G A31G,0.549
10,C18G A31U,0.165
11,G19U G40U,0.194
12,G19C A59U,0.19
13,G19C A59C,0.225
14,G19A A39U,0.404
15,C18G A35U,0.544
16,C18A C48A,0.14
17,C18G U52A,0.833
18,C18G U52C,1.04
19,G19C G29C,0.111
20,G19A U53G,0.691
21,G19A U53C,0.854
22,G19U A22G,0.715
23,G19U A22C,0.625
24,C18G A49C,0.12

row,Variant,self-cleavage
1,C18G A49U,0.196
2,G19C U53C,0.679
3,C18U U67G,0.303
4,G19A A31G,0.7
5,C18G G32A,0.154
6,C18G G32U,0.1
7,U20A A39G,0.302
8,U20A A39C,0.403
9,G19U A23G,0.932
10,C18U A31C,0.0854
11,C18U A31G,0.721
12,C18U A31U,0.112
13,C18G U55G,0.311
14,C18A G25A,0.681
15,G19C A71G,1.07
16,G19C A71U,0.722
17,C18G C37U,0.493
18,C18G C37G,0.259
19,C18G C37A,0.235
20,C18U C65U,0.373
21,G19U A30C,0.128
22,C18G G21A,0.767
23,G19A U33C,0.0941
24,G19A U33G,0.175

row,Variant,self-cleavage
1,U20A G27U,0.203
2,G19U A31G,0.624
3,C18G A45C,0.152
4,G19U G56U,0.179
5,G19A C37U,0.567
6,C18G C50A,0.245
7,C18G C50G,0.176
8,C18G G19C,0.804
9,G19C G54C,0.406
10,G19U G32C,0.137
11,G19U G32U,0.118
12,G19A A61U,0.147
13,G19A A61G,0.158
14,G19A U58A,0.557
15,G19A U58G,0.583
16,C18U G34C,1.44
17,C18G G56C,0.176
18,C18G G56A,0.14
19,G19C A30U,0.161
20,U20A G40A,0.242
21,C18A U60A,1.02
22,C18A U60G,0.732
23,C18U A41G,1.04
